Patent publication US20200297818A1 (ZEALAND PHARMA A S, published 2020)
Residue numbers refer to the chain shown, from its start. *1 amine or outer side, *2 acyl side, *3 side chain or, on linkers, in order; H or OH if unused. Where no end group is shown, it is not given here. Side-chain parts run from the residue outwards. [ ]: non-standard residue; d: D form. The star is where a group is joined. C20 diacid = O=C(O)CCCCCCCCCCCCCCCCCCC(=O)*; C18 diacid = O=C(O)CCCCCCCCCCCCCCCCC(=O)*; γGlu = O=C(O)[C@H](CCC(=O)[*:2])N[*:1]; AEEA = NCCOCCOCC(=O)O; Aib = CC(C)(N)C(=O)O

T1: human GLP-2 receptor (hGLP2-R) (human, UniProt O95838 1-553)
T1 sequence (looked up): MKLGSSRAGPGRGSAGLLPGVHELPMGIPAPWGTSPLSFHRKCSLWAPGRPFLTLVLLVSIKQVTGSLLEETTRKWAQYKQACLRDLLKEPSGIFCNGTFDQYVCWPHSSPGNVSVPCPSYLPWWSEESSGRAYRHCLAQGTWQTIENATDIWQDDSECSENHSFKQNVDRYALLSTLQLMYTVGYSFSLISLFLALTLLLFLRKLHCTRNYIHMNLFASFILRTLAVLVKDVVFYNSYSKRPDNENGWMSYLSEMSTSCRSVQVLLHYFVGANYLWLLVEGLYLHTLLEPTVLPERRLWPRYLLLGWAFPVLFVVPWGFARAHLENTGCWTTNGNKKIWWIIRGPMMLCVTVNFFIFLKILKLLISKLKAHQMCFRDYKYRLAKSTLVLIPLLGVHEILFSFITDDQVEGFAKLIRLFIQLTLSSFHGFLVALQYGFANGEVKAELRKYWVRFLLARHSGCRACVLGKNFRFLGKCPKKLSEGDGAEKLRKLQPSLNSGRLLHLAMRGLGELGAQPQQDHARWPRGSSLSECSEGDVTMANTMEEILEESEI

B1: Compound 3 (peptide)
peptide: HXEGTFTSELATILDXEAARDFIAWLIEHKITD
HELM: PEPTIDE1{H.[Aib].E.G.T.F.T.S.E.L.A.T.I.L.D.K.E.A.A.R.D.F.I.A.W.L.I.E.H.K.I.T.D}|PEPTIDE2{[O=C(O)CCCCCCCCCCCCCCCCC(=O)[*:2]].[gGlu]}$PEPTIDE1,PEPTIDE2,16:R3-2:R2$$$V2.0
SMILES: CC[C@H](C)[C@H](NC(=O)[C@H](Cc1ccccc1)NC(=O)[C@H](CC(=O)O)NC(=O)[C@H](CCCNC(=N)N)NC(=O)[C@H](C)NC(=O)[C@H](C)NC(=O)[C@H](CCC(=O)O)NC(=O)[C@H](CCCCNC(=O)CC[C@H](NC(=O)CCCCCCCCCCCCCCCCC(=O)O)C(=O)O)NC(=O)[C@H](CC(=O)O)NC(=O)[C@H](CC(C)C)NC(=O)[C@@H](NC(=O)[C@@H](NC(=O)[C@H](C)NC(=O)[C@H](CC(C)C)NC(=O)[C@H](CCC(=O)O)NC(=O)[C@H](CO)NC(=O)[C@@H](NC(=O)[C@H](Cc1ccccc1)NC(=O)[C@@H](NC(=O)CNC(=O)[C@H](CCC(=O)O)NC(=O)C(C)(C)NC(=O)[C@@H](N)Cc1c[nH]cn1)[C@@H](C)O)[C@@H](C)O)[C@@H](C)O)[C@@H](C)CC)C(=O)N[C@@H](C)C(=O)N[C@@H](Cc1c[nH]c2ccccc12)C(=O)N[C@@H](CC(C)C)C(=O)N[C@H](C(=O)N[C@@H](CCC(=O)O)C(=O)N[C@@H](Cc1c[nH]cn1)C(=O)N[C@@H](CCCCN)C(=O)N[C@H](C(=O)N[C@H](C(=O)N[C@@H](CC(=O)O)C(=O)O)[C@@H](C)O)[C@@H](C)CC)[C@@H](C)CC
B2: Compound 8 (peptide)
peptide: B1 peptide with T5S, X16G, E17X
HELM: PEPTIDE1{H.[Aib].E.G.S.F.T.S.E.L.A.T.I.L.D.G.K.A.A.R.D.F.I.A.W.L.I.E.H.K.I.T.D}|PEPTIDE2{[O=C(O)CCCCCCCCCCCCCCCCC(=O)[*:2]].[gGlu]}$PEPTIDE1,PEPTIDE2,17:R3-2:R2$$$V2.0
SMILES: CC[C@H](C)[C@H](NC(=O)[C@H](Cc1ccccc1)NC(=O)[C@H](CC(=O)O)NC(=O)[C@H](CCCNC(=N)N)NC(=O)[C@H](C)NC(=O)[C@H](C)NC(=O)[C@H](CCCCNC(=O)CC[C@H](NC(=O)CCCCCCCCCCCCCCCCC(=O)O)C(=O)O)NC(=O)CNC(=O)[C@H](CC(=O)O)NC(=O)[C@H](CC(C)C)NC(=O)[C@@H](NC(=O)[C@@H](NC(=O)[C@H](C)NC(=O)[C@H](CC(C)C)NC(=O)[C@H](CCC(=O)O)NC(=O)[C@H](CO)NC(=O)[C@@H](NC(=O)[C@H](Cc1ccccc1)NC(=O)[C@H](CO)NC(=O)CNC(=O)[C@H](CCC(=O)O)NC(=O)C(C)(C)NC(=O)[C@@H](N)Cc1c[nH]cn1)[C@@H](C)O)[C@@H](C)O)[C@@H](C)CC)C(=O)N[C@@H](C)C(=O)N[C@@H](Cc1c[nH]c2ccccc12)C(=O)N[C@@H](CC(C)C)C(=O)N[C@H](C(=O)N[C@@H](CCC(=O)O)C(=O)N[C@@H](Cc1c[nH]cn1)C(=O)N[C@@H](CCCCN)C(=O)N[C@H](C(=O)N[C@H](C(=O)N[C@@H](CC(=O)O)C(=O)O)[C@@H](C)O)[C@@H](C)CC)[C@@H](C)CC
B3: Compound 7 (peptide)
peptide: B1 peptide with T7S, X16G, E17X
HELM: PEPTIDE1{H.[Aib].E.G.T.F.S.S.E.L.A.T.I.L.D.G.K.A.A.R.D.F.I.A.W.L.I.E.H.K.I.T.D}|PEPTIDE2{[O=C(O)CCCCCCCCCCCCCCCCC(=O)[*:2]].[gGlu]}$PEPTIDE1,PEPTIDE2,17:R3-2:R2$$$V2.0
SMILES: CC[C@H](C)[C@H](NC(=O)[C@H](Cc1ccccc1)NC(=O)[C@H](CC(=O)O)NC(=O)[C@H](CCCNC(=N)N)NC(=O)[C@H](C)NC(=O)[C@H](C)NC(=O)[C@H](CCCCNC(=O)CC[C@H](NC(=O)CCCCCCCCCCCCCCCCC(=O)O)C(=O)O)NC(=O)CNC(=O)[C@H](CC(=O)O)NC(=O)[C@H](CC(C)C)NC(=O)[C@@H](NC(=O)[C@@H](NC(=O)[C@H](C)NC(=O)[C@H](CC(C)C)NC(=O)[C@H](CCC(=O)O)NC(=O)[C@H](CO)NC(=O)[C@H](CO)NC(=O)[C@H](Cc1ccccc1)NC(=O)[C@@H](NC(=O)CNC(=O)[C@H](CCC(=O)O)NC(=O)C(C)(C)NC(=O)[C@@H](N)Cc1c[nH]cn1)[C@@H](C)O)[C@@H](C)O)[C@@H](C)CC)C(=O)N[C@@H](C)C(=O)N[C@@H](Cc1c[nH]c2ccccc12)C(=O)N[C@@H](CC(C)C)C(=O)N[C@H](C(=O)N[C@@H](CCC(=O)O)C(=O)N[C@@H](Cc1c[nH]cn1)C(=O)N[C@@H](CCCCN)C(=O)N[C@H](C(=O)N[C@H](C(=O)N[C@@H](CC(=O)O)C(=O)O)[C@@H](C)O)[C@@H](C)CC)[C@@H](C)CC
B4: Compound 5 (peptide)
peptide: B1 peptide with T5S, E17K
HELM: PEPTIDE1{H.[Aib].E.G.S.F.T.S.E.L.A.T.I.L.D.K.K.A.A.R.D.F.I.A.W.L.I.E.H.K.I.T.D}|PEPTIDE2{[O=C(O)CCCCCCCCCCCCCCCCC(=O)[*:2]].[gGlu]}$PEPTIDE1,PEPTIDE2,16:R3-2:R2$$$V2.0
SMILES: CC[C@H](C)[C@H](NC(=O)[C@H](Cc1ccccc1)NC(=O)[C@H](CC(=O)O)NC(=O)[C@H](CCCNC(=N)N)NC(=O)[C@H](C)NC(=O)[C@H](C)NC(=O)[C@H](CCCCN)NC(=O)[C@H](CCCCNC(=O)CC[C@H](NC(=O)CCCCCCCCCCCCCCCCC(=O)O)C(=O)O)NC(=O)[C@H](CC(=O)O)NC(=O)[C@H](CC(C)C)NC(=O)[C@@H](NC(=O)[C@@H](NC(=O)[C@H](C)NC(=O)[C@H](CC(C)C)NC(=O)[C@H](CCC(=O)O)NC(=O)[C@H](CO)NC(=O)[C@@H](NC(=O)[C@H](Cc1ccccc1)NC(=O)[C@H](CO)NC(=O)CNC(=O)[C@H](CCC(=O)O)NC(=O)C(C)(C)NC(=O)[C@@H](N)Cc1c[nH]cn1)[C@@H](C)O)[C@@H](C)O)[C@@H](C)CC)C(=O)N[C@@H](C)C(=O)N[C@@H](Cc1c[nH]c2ccccc12)C(=O)N[C@@H](CC(C)C)C(=O)N[C@H](C(=O)N[C@@H](CCC(=O)O)C(=O)N[C@@H](Cc1c[nH]cn1)C(=O)N[C@@H](CCCCN)C(=O)N[C@H](C(=O)N[C@H](C(=O)N[C@@H](CC(=O)O)C(=O)O)[C@@H](C)O)[C@@H](C)CC)[C@@H](C)CC

molecular target: human glucagon-like peptide 1 receptor (GLP-1 R) (human, UniProt P43220 24-463); test: cell-based or functional assay

| Binder | EC50 GLP-1 (nM); cAMP response [nM] |
| --- | --- |
| H-H[Aib]EGSFTSELATILDAKAAK([AEEA-Lys-Glu-Lys-γGlu-C20 diacid])DFIAWLIEHKITD-OH [Compound 68] | 0.084 |
| H-H[Aib]EGTFTSELATILDEQAAK([AEEA-Lys-Glu-Lys-γGlu-C20 diacid])DFIAWLIEHKITD-OH [Compound 65] | 0.13 |
| B1 | 0.042 |
| B2 | 0.22 |
| B3 | 0.92 |
| B4 | 0.17 |
| H[Aib]EGTFSSELATILDK([γGlu-C18 diacid])KAARDFIAWLIEHKITD-OH [Compound 4] | 0.66 |
| H-H[Aib]EGTFTSELATILDEQAAK([AEEA-AEEA-Lys-Glu-Lys-γGlu-C20 diacid])DFIAWLIEHKITD-OH [Compound 67] | 0.16 |
| H-H[Aib]EGSFTSELATILDEQAAK([AEEA-Lys-Glu-Lys-γGlu-C20 diacid])DFIAWLIEHKITD-OH [Compound 64] | 0.49 |
| H-H[Aib]EGSFTSELATILDEQAAK([AEEA-AEEA-Lys-Glu-Lys-γGlu-C20 diacid])DFIAWLIEHKITD-OH [Compound 66] | 0.65 |
| H-H[Aib]EGSFTSELATILDAK([AEEA-AEEA-Lys-Glu-Lys-γGlu-C20 diacid])AARDFIAWLIEHKITD-OH [Compound 63] | 0.31 |
| H-H[Aib]EGSFTSELATILDAK([AEEA-Lys-Glu-Lys-γGlu-C20 diacid])AARDFIAWLIEHKITD-OH [Compound 62] | 0.27 |
| H[Aib]EGTFTSELATILDK([γGlu-C18 diacid])KAARDFIAWLIEHKITD-OH [Compound 6] | 0.058 |
| H-H[Aib]EGSFTSELATILEGK([AEEA-Lys-Glu-Lys-γGlu-C20 diacid])AARDFIAWLIEHKITD-OH [Compound 61] | 0.13 |

molecular target: T1, human GLP-2 receptor (hGLP2-R); test: cell-based or functional assay

| Binder | EC50 GLP-2 (nM); cAMP response [nM] |
| --- | --- |
| H-H[Aib]EGSFTSELATILDAKAAK([AEEA-Lys-Glu-Lys-γGlu-C20 diacid])DFIAWLIEHKITD-OH [Compound 68] | 0.1 |
| H-H[Aib]EGTFTSELATILDEQAAK([AEEA-Lys-Glu-Lys-γGlu-C20 diacid])DFIAWLIEHKITD-OH [Compound 65] | 0.35 |
| B1 | 0.33 |
| B2 | 0.039 |
| B3 | 0.019 |
| B4 | 0.063 |
| H[Aib]EGTFSSELATILDK([γGlu-C18 diacid])KAARDFIAWLIEHKITD-OH [Compound 4] | 0.087 |
| H-H[Aib]EGTFTSELATILDEQAAK([AEEA-AEEA-Lys-Glu-Lys-γGlu-C20 diacid])DFIAWLIEHKITD-OH [Compound 67] | 0.22 |
| H-H[Aib]EGSFTSELATILDEQAAK([AEEA-Lys-Glu-Lys-γGlu-C20 diacid])DFIAWLIEHKITD-OH [Compound 64] | 0.2 |
| H-H[Aib]EGSFTSELATILDEQAAK([AEEA-AEEA-Lys-Glu-Lys-γGlu-C20 diacid])DFIAWLIEHKITD-OH [Compound 66] | 0.18 |
| H-H[Aib]EGSFTSELATILDAK([AEEA-AEEA-Lys-Glu-Lys-γGlu-C20 diacid])AARDFIAWLIEHKITD-OH [Compound 63] | 0.17 |
| H-H[Aib]EGSFTSELATILDAK([AEEA-Lys-Glu-Lys-γGlu-C20 diacid])AARDFIAWLIEHKITD-OH [Compound 62] | 0.15 |
| H[Aib]EGTFTSELATILDK([γGlu-C18 diacid])KAARDFIAWLIEHKITD-OH [Compound 6] | 0.12 |
| H-H[Aib]EGSFTSELATILEGK([AEEA-Lys-Glu-Lys-γGlu-C20 diacid])AARDFIAWLIEHKITD-OH [Compound 61] | 0.2 |
